Results reported in US20130058934A1.
Changes are numbered by the printed parent chain.

B1: scFv08168-D7 (scFv, part only; not given: Linker and His tag, V domains shown, not shown: another chain or arm of the molecule; small tags and cut ends)
VH: QVQLVESGGGLVQPGGSLRLSCAASGFTFSDYVMNWVRQAPGKGLEWVSGISWSGVNTHYADSVKGRFTISRDNSKNTLYLQMNSLRAEDTAVYYCARLGATANNIRYKFMDVWGQGTLVTVSS
VL: DIELTQPPSVSVAPGQTARITCSGDSLRNKVYWYQQKPGQAPVLVIYKNNRPSGIPERFSGSNSGNTATLTISGTQAEDEADYYCQSYDGQKSLVFGGGTKLTVL
B2: scFv08168-D9 (scFv, part only; not given: Linker and His tag, V domains shown, not shown: another chain or arm of the molecule; small tags and cut ends)
VH: B1 VH
VL: B1 VL with T21S, G61V
B3: scFv08168-D6 (scFv, part only; not given: Linker and His tag, V domains shown, not shown: another chain or arm of the molecule; small tags and cut ends)
VH: B1 VH with V48I
VL: B1 VL with T21S
B4: MOR08168 Fab (Fab, V domains shown)
VH: B1 VH with M34I
VL: B1 VL with T21S
B5: MOR08545 Fab (Fab, V domains shown)
VH: QVQLVESGGGLVQPGGSLRLSCAASGFTFSVNGMHWVRQAPGKGLEWVSVIDGMGHTYYADSVKGRFTISRDNSKNTLYLQMNSLRAEDTAVYYCARYDYIKYGAFDPWGQGTLVTVSS
VL: DIELTQPPSVSVAPGQTARISCSGDNIGSKYVHWYQQKPGQAPVLVIYGDSNRPSGIPERFSGSNSGNTATLTISGTQAEDEADYYCTRTSTPISGVFGGGTKLTVLG
B6: MOR06706 Fab (Fab, V domains shown)
VH: QVQLVESGGGLVQPGGSLRLSCAASGFTFSDYAIHWVRQAPGKGLEWVSGISYSGSSTHYADSVKGRFTISRDNSKNTLYLQMNSLRAEDTAVYYCARGSHGNIMAKRYFDFWGQGTLVTVSS
VL: DIELTQPPSVSVAPGQTARISCSGDNIRKKYVYWYQQKPGQAPVLVIYEDSKRPSGIPERFSGSNSGNTATLTISGTQAEDEADYYCSTADSGINNGVFGGGTKLTVL
B7: MOR06475 Fab (Fab, V domains shown)
VH: QVQLKESGPALVKPTQTLTLTCTFSGFSLSNRGGGVGWIRQPPGKALEWLAWIDWDDDKSYSTSLKTRLTISKDTSKNQVVLTMTNMDPVDTATYYCARMHLPLVFDSWGQGTLVTVSS
VL: DIVLTQSPATLSLSPGERATLSCRASQFIGSRYLAWYQQKPGQAPRLLIYGASNRATGVPARFSGSGSGTDFTLTISSLEPEDFATYYCQQYYDYPQTFGQGTKVEIK

Tests used:
human LRP6 (human) = human LRP6 (human) (UniProt O75581)
[1] = target: cynomolgus LRP6 (cynomolgus); assay: FACS on HEK293T/17 cells transiently transfected with cynomolgus LRP6

human LRP6 (human), sequence (O75581 20-1613): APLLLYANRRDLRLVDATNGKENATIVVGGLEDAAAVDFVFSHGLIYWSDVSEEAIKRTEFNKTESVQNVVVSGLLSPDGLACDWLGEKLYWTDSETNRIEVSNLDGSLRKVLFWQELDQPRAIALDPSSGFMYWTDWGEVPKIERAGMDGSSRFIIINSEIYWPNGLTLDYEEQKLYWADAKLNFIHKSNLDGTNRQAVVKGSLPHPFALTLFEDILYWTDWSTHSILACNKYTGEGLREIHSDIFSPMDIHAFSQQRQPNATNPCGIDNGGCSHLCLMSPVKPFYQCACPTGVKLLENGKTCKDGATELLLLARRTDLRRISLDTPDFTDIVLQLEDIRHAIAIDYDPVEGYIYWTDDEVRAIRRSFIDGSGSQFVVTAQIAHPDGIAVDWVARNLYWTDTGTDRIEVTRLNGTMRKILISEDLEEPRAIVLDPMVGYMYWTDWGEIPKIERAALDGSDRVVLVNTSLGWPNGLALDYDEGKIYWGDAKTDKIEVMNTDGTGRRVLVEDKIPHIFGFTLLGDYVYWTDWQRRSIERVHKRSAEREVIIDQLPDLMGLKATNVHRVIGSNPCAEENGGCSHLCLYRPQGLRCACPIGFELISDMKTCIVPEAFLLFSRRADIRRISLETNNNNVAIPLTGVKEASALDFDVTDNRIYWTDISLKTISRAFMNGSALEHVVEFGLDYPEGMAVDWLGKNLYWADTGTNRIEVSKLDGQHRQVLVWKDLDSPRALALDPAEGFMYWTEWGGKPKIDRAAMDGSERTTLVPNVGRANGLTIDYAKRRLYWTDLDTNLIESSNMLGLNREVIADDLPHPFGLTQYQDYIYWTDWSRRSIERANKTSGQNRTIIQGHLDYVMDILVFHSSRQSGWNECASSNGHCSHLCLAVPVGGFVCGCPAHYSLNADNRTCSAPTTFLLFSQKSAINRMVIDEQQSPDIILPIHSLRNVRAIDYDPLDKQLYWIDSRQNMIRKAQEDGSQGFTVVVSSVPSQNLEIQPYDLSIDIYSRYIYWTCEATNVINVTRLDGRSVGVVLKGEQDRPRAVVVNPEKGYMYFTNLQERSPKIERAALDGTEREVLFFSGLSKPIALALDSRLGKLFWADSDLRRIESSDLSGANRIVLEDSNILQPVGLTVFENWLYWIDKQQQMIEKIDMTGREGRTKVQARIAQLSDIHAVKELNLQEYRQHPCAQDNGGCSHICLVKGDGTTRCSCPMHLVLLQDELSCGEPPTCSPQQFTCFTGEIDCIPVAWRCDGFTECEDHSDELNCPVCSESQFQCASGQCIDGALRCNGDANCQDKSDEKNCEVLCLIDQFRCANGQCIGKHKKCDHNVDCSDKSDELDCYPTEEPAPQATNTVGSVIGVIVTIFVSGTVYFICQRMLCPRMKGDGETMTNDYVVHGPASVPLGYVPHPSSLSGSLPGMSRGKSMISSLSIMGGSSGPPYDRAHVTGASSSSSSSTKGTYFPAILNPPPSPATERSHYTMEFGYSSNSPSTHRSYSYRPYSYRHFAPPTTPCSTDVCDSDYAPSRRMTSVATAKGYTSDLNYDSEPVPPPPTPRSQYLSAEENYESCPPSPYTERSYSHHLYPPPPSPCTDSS

Binder | IC50 by STF assay for Wnt1 inhibition (human LRP6 (human)) [pM] | EC50 [1] [pM]
B1 | 4810 | –
B2 | 11100 | –
B3 | 740 | –
B4 | – | 880
B5 | – | 300
B6 | – | 460
B7 | – | 220
